Measured values taken from US9591845B2, “Method for treating blood, blood products and organs” (FORSCHUNGSZENTRUM JUELICH GMBH, priority 2012, dated 2017).
Non-standard residues stand in square brackets, D forms with d. No end group written: not given here.

Target: A-beta peptide (1-42) (Homo sapiens, UniProt P05067)
Assay: ThT seeding assay
Format: biochemical
Details: for seeding effect of preformed Abeta-inhibitor coaggregates (ability to increase the rate of the aggregation of fresh Abeta / shorten the lag phase): coaggregates formed with 20 μM inhibitor, 7 days at 37° C., 10 mM NaPi pH 7.4, mixed 20:80 with fresh Aβ 20 μM, 10 μM ThT, fluorescence over 20 h

A-beta peptide (1-42), sequence (P05067 672-713): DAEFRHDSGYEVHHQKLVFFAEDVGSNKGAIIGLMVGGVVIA

Row | Substance | seeding effect of preformed Abeta-inhibitor coaggregates (ability to increase the rate of the aggregation of fresh Abeta / shorten the lag phase) | formation of ThT-positive Abeta aggregates in the later phase (inhibitor-Abeta coaggregates added to fresh Aβ 20 μM, ThT fluorescence over 20 h)
1 | rpitrlhtnrnr [DB1] | no seeding effect | –
2 | rpitrlqtheqr ([dR][dP][dI][dT][dR][dL][dQ][dT][dH][dE][dQ][dR]) [DB5] | no seeding effect | –
3 | rpitrlrthqnr ([dR][dP][dI][dT][dR][dL][dR][dT][dH][dQ][dN][dR]) [DB3] | no seeding effect | –
4 | rpittlqthqnr ([dR][dP][dI][dT][dT][dL][dQ][dT][dH][dQ][dN][dR]) [DB2] | no seeding effect | –
5 | rprtrlhthrnr ([dR][dP][dR][dT][dR][dL][dH][dT][dH][dR][dN][dR]) [D3] | no seeding effect | –
6 | rprtrlrthqnr ([dR][dP][dR][dT][dR][dL][dR][dT][dH][dQ][dN][dR]) [DB4] | no seeding effect | appear to reduce the formation of ThT-positive Abeta aggregates in the later phase
